Data set [1] addresses T1, PcrA (Geobacillus stearothermophilus, UniProt P56255).
T1 construct: recombinant, prepared as described previously
T1 sequence (P56255 1-724): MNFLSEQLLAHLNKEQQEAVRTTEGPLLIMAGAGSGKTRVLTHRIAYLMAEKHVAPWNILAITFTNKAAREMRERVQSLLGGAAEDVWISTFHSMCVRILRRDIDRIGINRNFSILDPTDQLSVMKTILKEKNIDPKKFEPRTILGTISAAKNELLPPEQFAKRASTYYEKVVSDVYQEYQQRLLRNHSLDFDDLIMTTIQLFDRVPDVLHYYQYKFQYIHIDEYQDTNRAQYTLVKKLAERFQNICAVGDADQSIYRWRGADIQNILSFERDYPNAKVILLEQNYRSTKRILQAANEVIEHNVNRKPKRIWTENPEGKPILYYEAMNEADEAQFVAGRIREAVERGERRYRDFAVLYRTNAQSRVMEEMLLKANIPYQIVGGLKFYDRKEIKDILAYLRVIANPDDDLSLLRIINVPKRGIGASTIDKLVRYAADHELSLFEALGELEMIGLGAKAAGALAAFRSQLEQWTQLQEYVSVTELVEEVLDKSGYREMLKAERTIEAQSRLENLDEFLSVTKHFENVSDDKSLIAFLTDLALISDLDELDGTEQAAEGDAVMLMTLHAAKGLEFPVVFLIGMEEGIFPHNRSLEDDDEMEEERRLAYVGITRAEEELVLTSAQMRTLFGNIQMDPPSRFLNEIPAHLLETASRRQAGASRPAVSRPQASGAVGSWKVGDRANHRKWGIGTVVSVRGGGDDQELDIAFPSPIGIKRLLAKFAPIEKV
Kind of data set: stopped-flow fluorescence, koff/kon. The data set is classed as binding.

Data set [2] deals with T1, PcrA. As to the kind of experiment: stopped-flow fluorescence, quench-flow HPLC, Pi release, single turnover. The class given is biochemical. The note with it: 8 μM PcrA, 10 μM dT20, 2 μM deac-aminoATP; 3 mM MgCl2, pH 7.5; labelled compound.
Substrate in data set [3]: CNc1ccccc1C(=O)O[C@H]1C[C@H](n2cnc3c(N)ncnc32)O[C@@H]1COP(=O)(O)OP(=O)(O)OP(=O)(O)O
As to the kind of experiment: steady-state ATPase, MDCC-PBP phosphate release. The class given is biochemical, Deinococcus radiodurans. Conditions: with 500 nM dT20 ssDNA, 10 mM MgCl2, pH 7.5, 20 °C. The text has this: (§1) steady-state ATPase, MDCC-PBP phosphate release on RecD2

Substrate in data set [4]: Nc1ncnc2c1ncn2[C@@H]1O[C@H](COP(=O)(O)OP(=O)(O)OP(=O)(O)O)[C@@H](O)[C@H]1O
As to the kind of experiment: steady-state ATPase, MDCC-PBP phosphate release. The data set is classed as biochemical, Deinococcus radiodurans. The note with it: with 500 nM dT20 ssDNA, 10 mM MgCl2, pH 7.5, 20 °C.
Text: as §1

The text below walks through data of PMC3757182, “ATPase Mechanism of the 5′-3′ DNA Helicase, RecD2” (The Journal of Biological Chemistry, 2013).

As a reminder, the Kd is the concentration at which binding is half-saturated. Take `CCN(CC)c1ccc2cc(C(=O)N[C@H]3[C@@H](O)[C@H](n4cnc5c(N)ncnc54)O[C@@H]3COP(=O)(O)OP(=O)(O)O)c(=O)oc2c1` [deac-aminoADP]: at PcrA [1], the equilibrium dissociation constant (Kd) amounted to 1700 nM.
For the molecule `CCN(CC)c1ccc2cc(C(=O)N[C@H]3[C@@H](O)[C@H](n4cnc5c(N)ncnc54)O[C@@H]3COP(=O)(O)OP(=O)(O)OP(=O)(O)O)c(=O)oc2c1` [deac-aminoATP, 3′-(7-diethylaminocoumarin-3-carbonylamino)-3′-deoxyadenosine-5′-triphosphate], the “stopped-flow fluorescence, quench-flow HPLC, Pi release, single turnover” value at PcrA [2] was “After mixing excess PcrA·dT20 with deac-aminoATP, there was a biphasic increase in fluorescence”.

B1: RecD2 (Deinococcus radiodurans R1 = ATCC 13939 = DSM 20539) (protein)
chain: SQQGLERRLLAGLQGLGLTINQAQRAVKHFGADALDRLEKDLFTLTEVEGIGFLTADKLWQARGGALDDPRRLTAAAVYALQLAGTQAGHSFLPRSRAEKGVVHYTRVTPGQARLAVETAVELGRLSEDDSPLFAAEAAATGEGRIYLPHVLRAEKKLASLIRTLLATPPADGAGNDDWAVPKKARKGLSEEQASVLDQLAGHRLVVLTGGPGTGKSTTTKAVADLAESLGLEVGLCAPTGKAARRLGEVTGRTASTVHRLLGYGPQGFRHNHLEPAPYDLLIVDEVSMMGDALMLSLLAAVPPGARVLLVGDTDQLPPVDAGLPLLALAQAAPTIKLTQVYRQAAKNPIIQAAHGLLHGEAPAWGDKRLNLTEIEPDGGARRVALMVRELGGPGAVQVLTPMRKGPLGMDHLNYHLQALFNPGEGGVRIAEGEARPGDTVVQTKNDYNNEIFNGTLGMVLKAEGARLTVDFDGNVVELTGAELFNLQLGYALTVHRAQGSEWGTVLGVLHEAHMPMLSRNLVYTALTRARDRFFSAGSASAWQIAAARQREARNTALLERIRAH
notes: N-terminal truncation lacking the first 150 amino acids; recombinant; monomer
For orientation: Km means the substrate concentration at which the rate is half of its maximum. A word on the kcat: it is the maximal rate divided by the concentration of active sites. For B1, in data set [3], the Km stood at 12.1 ± 1.7 µM and the catalytic constant (kcat) was determined as 40.2 ± 2.4 s⁻¹. In addition, in data set [4], the Km turned out to be 30.3 ± 1.5 µM and the catalytic constant (kcat) worked out at 86.9 ± 1.5 s⁻¹.
